B1: Pistol ribozyme (parent)
chain: GGGUCGUUGUUCCAUAAUCGCGUGGAUAUGGCACGCAAGUUUCUACCGGGCACCGUAAAUGUCCGACUGGAGCCGUUCGGGCGGCUAUAAACAGACCUCAGGCCCGAAGCGUGGCGGCACCUGCCGCCGGUGGUAAAAAAGAUCGGAAGAGCACACGUCU

Variants of: B1
Assay: aptazyme ON/OFF ratio, guanine; higher = stronger switching; co-transcriptional cleavage with and without guanine

Row | Variant | aptazyme ON/OFF ratio
1 | GGGUCGACACGCCAUAAUCGCGUGGAUAUGGCACGCAAGUUUCUACCGGGCACCGUAAAUGUCCGACUGGAGCCGUUCGGGCGGCUAUAAACAGACCUCAGGCCCGAAGCGUGGCGGCACCUGCCGCCGGUGGUAAAAAAGAUCGGAAGAGCACACGUCU [U7A U8C G9A U10C U11G] | 1.16
2 | GGGUCGACAGUAAAUAAUCGCGUGGAUAUGGCACGCAAGUUUCUACCGGGCACCGUAAAUGUCCGACUGGAGCCGUUCGGGCGGCUAUAAACAGACCUCAGGCCCGAAGCGUGGCGGCACCUGCCGCCGGUGGUAAAAAAGAUCGGAAGAGCACACGUCU [U7A U8C G9A U10G C12A C13A] | 1.24
3 | GGGUCGACAGUAGAUAAUCGCGUGGAUAUGGCACGCAAGUUUCUACCGGGCACCGUAAAUGUCCGACUGGAGCCGUUCGGGCGGCUAUAAACAGACCUCAGGCCCGAAGCGUGGCGGCACCUGCCGCCGGUGGUAAAAAAGAUCGGAAGAGCACACGUCU [U7A U8C G9A U10G C12A C13G] | 1.2
4 | GGGUCGACAGUAUAUAAUCGCGUGGAUAUGGCACGCAAGUUUCUACCGGGCACCGUAAAUGUCCGACUGGAGCCGUUCGGGCGGCUAUAAACAGACCUCAGGCCCGAAGCGUGGCGGCACCUGCCGCCGGUGGUAAAAAAGAUCGGAAGAGCACACGUCU [U7A U8C G9A U10G C12A C13U] | 1.19
5 | GGGUCGACAGUUGAUAAUCGCGUGGAUAUGGCACGCAAGUUUCUACCGGGCACCGUAAAUGUCCGACUGGAGCCGUUCGGGCGGCUAUAAACAGACCUCAGGCCCGAAGCGUGGCGGCACCUGCCGCCGGUGGUAAAAAAGAUCGGAAGAGCACACGUCU [U7A U8C G9A U10G C12U C13G] | 1.18
6 | GGGUCGACAGUUAAUAAUCGCGUGGAUAUGGCACGCAAGUUUCUACCGGGCACCGUAAAUGUCCGACUGGAGCCGUUCGGGCGGCUAUAAACAGACCUCAGGCCCGAAGCGUGGCGGCACCUGCCGCCGGUGGUAAAAAAGAUCGGAAGAGCACACGUCU [U7A U8C G9A U10G C12U C13A] | 1.23
7 | GGGUCGACAGUUUAUAAUCGCGUGGAUAUGGCACGCAAGUUUCUACCGGGCACCGUAAAUGUCCGACUGGAGCCGUUCGGGCGGCUAUAAACAGACCUCAGGCCCGAAGCGUGGCGGCACCUGCCGCCGGUGGUAAAAAAGAUCGGAAGAGCACACGUCU [U7A U8C G9A U10G C12U C13U] | 1.39
8 | GGGUCGACACGUAAUAAUCGCGUGGAUAUGGCACGCAAGUUUCUACCGGGCACCGUAAAUGUCCGACUGGAGCCGUUCGGGCGGCUAUAAACAGACCUCAGGCCCGAAGCGUGGCGGCACCUGCCGCCGGUGGUAAAAAAGAUCGGAAGAGCACACGUCU [U7A U8C G9A U10C U11G C12U C13A] | 1.29
9 | GGGUCGACACGUGAUAAUCGCGUGGAUAUGGCACGCAAGUUUCUACCGGGCACCGUAAAUGUCCGACUGGAGCCGUUCGGGCGGCUAUAAACAGACCUCAGGCCCGAAGCGUGGCGGCACCUGCCGCCGGUGGUAAAAAAGAUCGGAAGAGCACACGUCU [U7A U8C G9A U10C U11G C12U C13G] | 1.35
10 | GGGUCGACACGUUAUAAUCGCGUGGAUAUGGCACGCAAGUUUCUACCGGGCACCGUAAAUGUCCGACUGGAGCCGUUCGGGCGGCUAUAAACAGACCUCAGGCCCGAAGCGUGGCGGCACCUGCCGCCGGUGGUAAAAAAGAUCGGAAGAGCACACGUCU [U7A U8C G9A U10C U11G C12U C13U] | 1.41
11 | GGGUCGACAGUGCAUAAUCGCGUGGAUAUGGCACGCAAGUUUCUACCGGGCACCGUAAAUGUCCGACUGGAGCCGUUCGGGCGGCUAUAAACAGACCUCAGGCCCGAAGCGUGGCGGCACCUGCCGCCGGUGGUAAAAAAGAUCGGAAGAGCACACGUCU [U7A U8C G9A U10G C12G] | 1.15
12 | GGGUCGACAGUACAUAAUCGCGUGGAUAUGGCACGCAAGUUUCUACCGGGCACCGUAAAUGUCCGACUGGAGCCGUUCGGGCGGCUAUAAACAGACCUCAGGCCCGAAGCGUGGCGGCACCUGCCGCCGGUGGUAAAAAAGAUCGGAAGAGCACACGUCU [U7A U8C G9A U10G C12A] | 1.1
13 | GGGUCGACAGUUCAUAAUCGCGUGGAUAUGGCACGCAAGUUUCUACCGGGCACCGUAAAUGUCCGACUGGAGCCGUUCGGGCGGCUAUAAACAGACCUCAGGCCCGAAGCGUGGCGGCACCUGCCGCCGGUGGUAAAAAAGAUCGGAAGAGCACACGUCU [U7A U8C G9A U10G C12U] | 1.23
14 | GGGUCGACACGCAAUAAUCGCGUGGAUAUGGCACGCAAGUUUCUACCGGGCACCGUAAAUGUCCGACUGGAGCCGUUCGGGCGGCUAUAAACAGACCUCAGGCCCGAAGCGUGGCGGCACCUGCCGCCGGUGGUAAAAAAGAUCGGAAGAGCACACGUCU [U7A U8C G9A U10C U11G C13A] | 1.33
15 | GGGUCGACACGCUAUAAUCGCGUGGAUAUGGCACGCAAGUUUCUACCGGGCACCGUAAAUGUCCGACUGGAGCCGUUCGGGCGGCUAUAAACAGACCUCAGGCCCGAAGCGUGGCGGCACCUGCCGCCGGUGGUAAAAAAGAUCGGAAGAGCACACGUCU [U7A U8C G9A U10C U11G C13U] | 1.46
16 | GGGUCGACACGCGAUAAUCGCGUGGAUAUGGCACGCAAGUUUCUACCGGGCACCGUAAAUGUCCGACUGGAGCCGUUCGGGCGGCUAUAAACAGACCUCAGGCCCGAAGCGUGGCGGCACCUGCCGCCGGUGGUAAAAAAGAUCGGAAGAGCACACGUCU [U7A U8C G9A U10C U11G C13G] | 1.37
17 | GGGUCGACAGUCCAUAAUCGCGUGGAUAUGGCACGCAAGUUUCUACCGGGCACCGUAAAUGUCCGACUGGAGCCGUUCGGGCGGCUAUAAACAGACCUCAGGCCCGAAGCGUGGCGGCACCUGCCGCCGGUGGUAAAAAAGAUCGGAAGAGCACACGUCU [U7A U8C G9A U10G] | 1.37
18 | GGGUCGACAGUGAAUAAUCGCGUGGAUAUGGCACGCAAGUUUCUACCGGGCACCGUAAAUGUCCGACUGGAGCCGUUCGGGCGGCUAUAAACAGACCUCAGGCCCGAAGCGUGGCGGCACCUGCCGCCGGUGGUAAAAAAGAUCGGAAGAGCACACGUCU [U7A U8C G9A U10G C12G C13A] | 1.27
